Tests used:
Assay in all cases: SPOT array
[1] = target: T1, Boi2 SH3 (BOI2_YEAST), P39969
T1 chain: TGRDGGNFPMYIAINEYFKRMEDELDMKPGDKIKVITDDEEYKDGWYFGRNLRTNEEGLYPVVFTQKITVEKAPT

[2] = target: T2, Yfr024 SH3 (LSB3_YEAST), P43603
T2 chain: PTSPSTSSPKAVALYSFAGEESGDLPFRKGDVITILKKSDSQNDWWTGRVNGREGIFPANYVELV

[3] = target: T3, Boi1 SH3 (BOI1_YEAST), P38041
T3 chain: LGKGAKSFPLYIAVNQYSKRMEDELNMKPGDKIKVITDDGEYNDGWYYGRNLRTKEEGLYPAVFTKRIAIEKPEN

[4] = target: T4, Yhr016c SH3 (YSC84_YEAST), P32793
T4 chain: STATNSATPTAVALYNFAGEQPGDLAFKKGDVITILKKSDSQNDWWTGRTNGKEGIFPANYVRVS

[5] = target: T5, Rvs167 SH3 (RV167_YEAST), P39743
T5 chain: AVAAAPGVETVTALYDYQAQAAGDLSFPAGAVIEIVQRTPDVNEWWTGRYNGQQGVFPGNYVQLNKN

PPPPPPPSRKSGTP [YDL146W 477-490]
normalised SPOT signal, Boehringer light units (BLU); mean over the file's lines of this peptide [1]: 50.2
normalised SPOT signal, Boehringer light units (BLU); mean over the file's lines of this peptide [2]: 6880
normalised SPOT signal, Boehringer light units (BLU); mean over the file's lines of this peptide [3]: 563
normalised SPOT signal, Boehringer light units (BLU); mean over the file's lines of this peptide [4]: 2480
normalised SPOT signal, Boehringer light units (BLU); mean over the file's lines of this peptide [5]: 1520

PTTPGYPSKDSDTE [YJR126C 341-354]
normalised SPOT signal, Boehringer light units (BLU); mean over the file's lines of this peptide [1]: 27.1
normalised SPOT signal, Boehringer light units (BLU); mean over the file's lines of this peptide [2]: 139
normalised SPOT signal, Boehringer light units (BLU); mean over the file's lines of this peptide [3]: 40.3
normalised SPOT signal, Boehringer light units (BLU); mean over the file's lines of this peptide [4]: 25
normalised SPOT signal, Boehringer light units (BLU); mean over the file's lines of this peptide [5]: 45.8

PSAPKVPFKTLDSF [YNL315C 113-126]
normalised SPOT signal, Boehringer light units (BLU); mean over the file's lines of this peptide [1]: 43
normalised SPOT signal, Boehringer light units (BLU); mean over the file's lines of this peptide [2]: 284
normalised SPOT signal, Boehringer light units (BLU); mean over the file's lines of this peptide [3]: 75.4
normalised SPOT signal, Boehringer light units (BLU); mean over the file's lines of this peptide [4]: 176
normalised SPOT signal, Boehringer light units (BLU); mean over the file's lines of this peptide [5]: 37

PPPPPPPPKPPLND [YMR089C 156-169]
normalised SPOT signal, Boehringer light units (BLU); mean over the file's lines of this peptide [1]: 58
normalised SPOT signal, Boehringer light units (BLU); mean over the file's lines of this peptide [2]: 1030
normalised SPOT signal, Boehringer light units (BLU); mean over the file's lines of this peptide [3]: 60
normalised SPOT signal, Boehringer light units (BLU); mean over the file's lines of this peptide [4]: 100
normalised SPOT signal, Boehringer light units (BLU); mean over the file's lines of this peptide [5]: 36.6

PPEPATPSKKSLTT [YBR060C 169-182]
normalised SPOT signal, Boehringer light units (BLU); mean over the file's lines of this peptide [1]: 26.2
normalised SPOT signal, Boehringer light units (BLU); mean over the file's lines of this peptide [2]: 41.3
normalised SPOT signal, Boehringer light units (BLU); mean over the file's lines of this peptide [3]: 46.1
normalised SPOT signal, Boehringer light units (BLU); mean over the file's lines of this peptide [4]: 66.6
normalised SPOT signal, Boehringer light units (BLU); mean over the file's lines of this peptide [5]: 23.8

PPVPKAPSRRSSSL [YER132C 943-956]
normalised SPOT signal, Boehringer light units (BLU); mean over the file's lines of this peptide [1]: 753
normalised SPOT signal, Boehringer light units (BLU); mean over the file's lines of this peptide [2]: 29400
normalised SPOT signal, Boehringer light units (BLU); mean over the file's lines of this peptide [3]: 1230
normalised SPOT signal, Boehringer light units (BLU); mean over the file's lines of this peptide [4]: 6150
normalised SPOT signal, Boehringer light units (BLU); mean over the file's lines of this peptide [5]: 1660

PRRPNEPGKGMKWR [YNL068C 402-415]
normalised SPOT signal, Boehringer light units (BLU); mean over the file's lines of this peptide [1]: 49
normalised SPOT signal, Boehringer light units (BLU); mean over the file's lines of this peptide [2]: 218
normalised SPOT signal, Boehringer light units (BLU); mean over the file's lines of this peptide [3]: 91
normalised SPOT signal, Boehringer light units (BLU); mean over the file's lines of this peptide [4]: 181
normalised SPOT signal, Boehringer light units (BLU); mean over the file's lines of this peptide [5]: 18.5

PPPPPVPAKLFGES [YNL271C 1244-1257]
normalised SPOT signal, Boehringer light units (BLU); mean over the file's lines of this peptide [1]: 37.8
normalised SPOT signal, Boehringer light units (BLU); mean over the file's lines of this peptide [2]: 2930
normalised SPOT signal, Boehringer light units (BLU); mean over the file's lines of this peptide [3]: 82.1
normalised SPOT signal, Boehringer light units (BLU); mean over the file's lines of this peptide [4]: 62.5
normalised SPOT signal, Boehringer light units (BLU); mean over the file's lines of this peptide [5]: 40.5

PQLPKSPSRYSLSR [YKL101W 622-635]
normalised SPOT signal, Boehringer light units (BLU); mean over the file's lines of this peptide [1]: 775
normalised SPOT signal, Boehringer light units (BLU); mean over the file's lines of this peptide [2]: 1610
normalised SPOT signal, Boehringer light units (BLU); mean over the file's lines of this peptide [3]: 14300
normalised SPOT signal, Boehringer light units (BLU); mean over the file's lines of this peptide [4]: 391
normalised SPOT signal, Boehringer light units (BLU); mean over the file's lines of this peptide [5]: 391

PTAPNSPIKLGRRK [YIL112W 218-231]
normalised SPOT signal, Boehringer light units (BLU); mean over the file's lines of this peptide [1]: 68.2
normalised SPOT signal, Boehringer light units (BLU); mean over the file's lines of this peptide [2]: 547
normalised SPOT signal, Boehringer light units (BLU); mean over the file's lines of this peptide [3]: 135
normalised SPOT signal, Boehringer light units (BLU); mean over the file's lines of this peptide [4]: 175
normalised SPOT signal, Boehringer light units (BLU); mean over the file's lines of this peptide [5]: 11.6

PNYPDSPPKVTFIS [YGL087C 66-79]
normalised SPOT signal, Boehringer light units (BLU); mean over the file's lines of this peptide [1]: 76.3
normalised SPOT signal, Boehringer light units (BLU); mean over the file's lines of this peptide [2]: 87.1
normalised SPOT signal, Boehringer light units (BLU); mean over the file's lines of this peptide [3]: 68.6
normalised SPOT signal, Boehringer light units (BLU); mean over the file's lines of this peptide [4]: 260
normalised SPOT signal, Boehringer light units (BLU); mean over the file's lines of this peptide [5]: 12.5

PSNPALPKKLLNVP [YGL197W 345-358]
normalised SPOT signal, Boehringer light units (BLU); mean over the file's lines of this peptide [1]: 78.6
normalised SPOT signal, Boehringer light units (BLU); mean over the file's lines of this peptide [2]: 1030
normalised SPOT signal, Boehringer light units (BLU); mean over the file's lines of this peptide [3]: 28.7
normalised SPOT signal, Boehringer light units (BLU); mean over the file's lines of this peptide [4]: 87.4
normalised SPOT signal, Boehringer light units (BLU); mean over the file's lines of this peptide [5]: 27.9

PQGPGIPPRTYEAS [YPL084W 769-782]
normalised SPOT signal, Boehringer light units (BLU); mean over the file's lines of this peptide [1]: 59.6
normalised SPOT signal, Boehringer light units (BLU); mean over the file's lines of this peptide [2]: 2650
normalised SPOT signal, Boehringer light units (BLU); mean over the file's lines of this peptide [3]: 87.2
normalised SPOT signal, Boehringer light units (BLU); mean over the file's lines of this peptide [4]: 1710
normalised SPOT signal, Boehringer light units (BLU); mean over the file's lines of this peptide [5]: 332

PNSPTPPLKSKVSR [YER164W 1337-1350]
normalised SPOT signal, Boehringer light units (BLU); mean over the file's lines of this peptide [1]: 40.1
normalised SPOT signal, Boehringer light units (BLU); mean over the file's lines of this peptide [2]: 866
normalised SPOT signal, Boehringer light units (BLU); mean over the file's lines of this peptide [3]: 170
normalised SPOT signal, Boehringer light units (BLU); mean over the file's lines of this peptide [4]: 164
normalised SPOT signal, Boehringer light units (BLU); mean over the file's lines of this peptide [5]: 25

PTPPSPPAKRIPRS [YPR171W 305-318]
normalised SPOT signal, Boehringer light units (BLU); mean over the file's lines of this peptide [1]: 134
normalised SPOT signal, Boehringer light units (BLU); mean over the file's lines of this peptide [2]: 8640
normalised SPOT signal, Boehringer light units (BLU); mean over the file's lines of this peptide [3]: 347
normalised SPOT signal, Boehringer light units (BLU); mean over the file's lines of this peptide [4]: 0
normalised SPOT signal, Boehringer light units (BLU); mean over the file's lines of this peptide [5]: 59.3

PPLPPIPTRDDMSN [YNL152W 329-342]
normalised SPOT signal, Boehringer light units (BLU); mean over the file's lines of this peptide [1]: 37.5
normalised SPOT signal, Boehringer light units (BLU); mean over the file's lines of this peptide [2]: 2050
normalised SPOT signal, Boehringer light units (BLU); mean over the file's lines of this peptide [3]: 72.7
normalised SPOT signal, Boehringer light units (BLU); mean over the file's lines of this peptide [4]: 545
normalised SPOT signal, Boehringer light units (BLU); mean over the file's lines of this peptide [5]: 124

PRGPLSPKKHVLPI [YPR107C 47-60]
normalised SPOT signal, Boehringer light units (BLU); mean over the file's lines of this peptide [1]: 1.8
normalised SPOT signal, Boehringer light units (BLU); mean over the file's lines of this peptide [2]: 289
normalised SPOT signal, Boehringer light units (BLU); mean over the file's lines of this peptide [3]: 110
normalised SPOT signal, Boehringer light units (BLU); mean over the file's lines of this peptide [4]: 204
normalised SPOT signal, Boehringer light units (BLU); mean over the file's lines of this peptide [5]: 29.4

Reference: PMC314469, “Protein Interaction Networks by Proteome Peptide Scanning” (PLoS Biology, 2004)
